Holding throughout (assay): IEDB peptide-MHC binding, purified MHC/direct/fluorescence; filed as Kd, often an IC50 or EC50 that approximates it; ≥ and ≤ were set here for values at or beyond the usual limits of such assays
For one test, the target named is HLA-A*11:01. The settings on record: source organism: Mycobacterium tuberculosis.
The target of another test is HLA-A*31:01. The settings on record: source organism: Mycobacterium tuberculosis.
The next test has as its target HLA-A*68:02. The settings on record: source organism: Mycobacterium tuberculosis.
A further test deals with HLA-B*07:02. The settings on record: source organism: Mycobacterium tuberculosis.
A further test deals with HLA-B*08:01. To be noted: source organism: Mycobacterium tuberculosis str. Haarlem.
A further test has as its target HLA-B*08:02. To be noted: source organism: Mycobacterium tuberculosis str. Haarlem.
The target of a further test is HLA-B*08:03. The settings on record: source organism: Mycobacterium tuberculosis str. Haarlem.
A further test addresses HLA-B*27:05. To be noted: source organism: Mycobacterium tuberculosis.
Another test concerns the target HLA-B*40:01. To be noted: source organism: Mycobacterium tuberculosis.
The next test has as its target HLA-B*46:01. To be noted: source organism: Mycobacterium tuberculosis.
For a further test, the target named is HLA-B*48:01. The settings on record: source organism: Mycobacterium tuberculosis.
The next test deals with HLA-B*57:01. The settings on record: source organism: Mycobacterium tuberculosis.
The target in the next test is HLA-B*58:01. To be noted: source organism: Mycobacterium tuberculosis.

With TLLESFLFY, the Kd with HLA-A*11:01 is 10 nM; with HLA-A*31:01, at least 20 µM; in the test with HLA-A*68:02, at least 20 µM; in the test with HLA-B*07:02 it was at least 20 µM; with HLA-B*08:01 it was at least 20 µM; with HLA-B*08:02 it was at least 20 µM. Moreover, the Kd with HLA-B*08:03, in the test with HLA-B*27:05, in the test with HLA-B*40:01, with HLA-B*46:01, with HLA-B*48:01 and with HLA-B*57:01 was at least 20 µM in each case. The sequence further yielded a Kd in the test with HLA-B*58:01 of at least 20 µM.

For the origin of these results see the Immune Epitope Database (IEDB).
